The target of assay [1] is T1, human IL-17RB protein (recombinant, R&D systems) (human).
T1 construct: Bought protein; also called hIL17RB
T1 sequence (Q9NRM6 whole entry, looked up): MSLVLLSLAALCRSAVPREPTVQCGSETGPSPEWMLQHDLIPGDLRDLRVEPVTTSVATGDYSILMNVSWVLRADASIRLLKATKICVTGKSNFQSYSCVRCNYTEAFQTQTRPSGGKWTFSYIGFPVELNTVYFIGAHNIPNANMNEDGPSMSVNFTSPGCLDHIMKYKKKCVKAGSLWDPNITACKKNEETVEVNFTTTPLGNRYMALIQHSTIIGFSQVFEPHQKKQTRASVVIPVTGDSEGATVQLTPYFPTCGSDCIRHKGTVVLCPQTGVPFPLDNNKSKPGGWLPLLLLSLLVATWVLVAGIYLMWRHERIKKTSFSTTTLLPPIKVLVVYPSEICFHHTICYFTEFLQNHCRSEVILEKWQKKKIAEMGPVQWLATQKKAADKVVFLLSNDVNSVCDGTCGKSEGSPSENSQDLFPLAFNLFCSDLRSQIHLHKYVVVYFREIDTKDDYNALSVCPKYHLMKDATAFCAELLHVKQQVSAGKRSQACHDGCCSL
Description: BLI (Octet RED96), SM17 captured via anti-human Fab CH1, IL17RB in solution; trial 1.
Description: (§1) Irrelevant antibody (SM03, anti-human CD22 chimeric IgG1 antibody, SinoMab BioScience Limited) was used as the control reference.

The target of assay [2] is T2, cynomolgus monkey IL-17RB protein (recombinant, R&D systems) (cynomolgus monkey, UniProt A0A2K5TUK1 18-289).
T2 construct: also called cynomolgus IL17RB; Cyno-IL17RB
T2 sequence: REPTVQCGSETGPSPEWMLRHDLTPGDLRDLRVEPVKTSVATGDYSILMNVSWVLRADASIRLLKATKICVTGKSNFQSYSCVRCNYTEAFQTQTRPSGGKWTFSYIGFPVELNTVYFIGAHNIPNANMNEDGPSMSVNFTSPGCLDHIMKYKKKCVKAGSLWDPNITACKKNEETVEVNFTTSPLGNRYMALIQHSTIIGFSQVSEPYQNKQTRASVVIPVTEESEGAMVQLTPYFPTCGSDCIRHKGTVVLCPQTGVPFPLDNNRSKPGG
The description is as above.
Description: as §1

Assay [3] concerns the target T1, human IL-17RB protein (recombinant, R&D …). Description: ELISA, coated receptor; SM17 at 0.00064 µg/mL; well 1.
Assay [4] has the same target. Briefly: ELISA, coated receptor; SM17 at 0.4 µg/mL; well 1.
The target of assay [5] is T3, human IL-17 receptor subunit E (human, UniProt Q8NFR9 24-454, limits assumed).
T3 construct: also called hIL17RE
T3 sequence (looked up): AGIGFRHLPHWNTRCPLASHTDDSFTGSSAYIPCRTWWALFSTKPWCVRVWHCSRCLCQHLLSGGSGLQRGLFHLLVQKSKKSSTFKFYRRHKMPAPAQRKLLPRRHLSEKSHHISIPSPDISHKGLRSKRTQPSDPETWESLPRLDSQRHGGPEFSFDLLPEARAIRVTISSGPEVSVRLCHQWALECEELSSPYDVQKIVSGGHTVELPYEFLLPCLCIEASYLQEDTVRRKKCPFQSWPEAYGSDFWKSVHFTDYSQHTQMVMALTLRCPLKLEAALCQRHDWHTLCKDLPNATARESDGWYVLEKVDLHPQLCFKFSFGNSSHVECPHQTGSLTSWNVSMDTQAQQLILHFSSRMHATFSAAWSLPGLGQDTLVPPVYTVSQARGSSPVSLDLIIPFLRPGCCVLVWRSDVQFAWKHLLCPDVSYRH
Briefly: ELISA, coated receptor; SM17 at 0.4 µg/mL; well 1.

Assay [6] has as its target T4, human IL-17 receptor subunit C (human, UniProt Q8NAC3-2 21-467, limits assumed).
T4 construct: also called IL17RC; hIL17RC
T4 sequence (looked up): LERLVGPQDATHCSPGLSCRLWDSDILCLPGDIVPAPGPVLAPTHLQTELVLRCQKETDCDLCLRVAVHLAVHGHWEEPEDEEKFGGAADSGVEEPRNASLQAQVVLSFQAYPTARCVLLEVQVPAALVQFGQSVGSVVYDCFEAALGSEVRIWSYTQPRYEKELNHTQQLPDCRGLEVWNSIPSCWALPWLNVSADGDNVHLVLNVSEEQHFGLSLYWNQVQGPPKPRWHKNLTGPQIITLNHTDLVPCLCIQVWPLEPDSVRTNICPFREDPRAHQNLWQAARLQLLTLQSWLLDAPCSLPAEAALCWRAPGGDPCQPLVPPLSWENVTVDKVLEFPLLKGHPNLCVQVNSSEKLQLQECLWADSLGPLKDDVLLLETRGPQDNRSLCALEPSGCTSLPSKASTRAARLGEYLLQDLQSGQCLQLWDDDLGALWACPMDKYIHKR
Briefly: ELISA, coated receptor; SM17 at 0.4 µg/mL; well 1.

Assay [7] deals with T5, human IL-17 receptor subunit D (human, UniProt Q8NFM7 28-299, limits assumed).
T5 construct: also called IL17RD; hIL 17RD
T5 sequence (looked up): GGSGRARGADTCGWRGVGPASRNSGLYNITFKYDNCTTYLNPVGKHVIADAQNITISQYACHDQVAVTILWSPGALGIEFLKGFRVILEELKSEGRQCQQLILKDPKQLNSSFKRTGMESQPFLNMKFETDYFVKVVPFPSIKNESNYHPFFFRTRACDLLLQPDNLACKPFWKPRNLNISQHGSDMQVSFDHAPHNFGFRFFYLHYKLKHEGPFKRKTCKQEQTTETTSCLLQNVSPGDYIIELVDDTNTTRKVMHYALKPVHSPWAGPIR
Description: ELISA, coated receptor; SM17 at 0.4 µg/mL; well 1.

For assay [8], the target named is T6, human IL-17 receptor subunit A (human, UniProt Q96F46 33-320).
T6 construct: also called IL17RA; hIL17RA
Description: ELISA, coated receptor; SM17 at 0.4 µg/mL; well 1.

The target in assay [9] is T7, human IL-33 (R&D systems) (human, UniProt O95760 112-270).
T7 sequence (looked up): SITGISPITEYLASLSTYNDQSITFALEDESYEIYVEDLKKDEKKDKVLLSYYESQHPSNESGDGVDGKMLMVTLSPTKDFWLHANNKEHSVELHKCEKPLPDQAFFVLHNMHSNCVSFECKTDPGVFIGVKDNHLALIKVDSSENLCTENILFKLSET
Briefly: ELISA on coated human IL-33 (2 ug/mL), goat anti-human F(ab')2-HRP [panel 'Binding affinity to human IL-33'].

B1: SM17 (antibody, human IgG4 S228P, kappa, V domains shown)
VH: QVQLVQSGAEVKKPGASVKVSCKASGYTFISYWMNWVRQAPGQGLEWMGRIDPYDSEIQYNQKFKDRVTMTRDTSISTAYMELSRLRSDDTAVYYCARSGGFDWFAYWGQGTLVTVSS
VL: DIQMTQSPSSLSASVGDRVTITCRASENINSNLAWYQQKPGKAPKLLLYDVTNLADGVPSRFSGSGSGTDYTLTISSLQPEDFATYYCQHFWGPPYTFGGGTKVEIKR
notes: other paragraphs and claim 15 call the same entries VH and VL; also called humanized anti-IL17RB monoclonal antibody
With B1, the Kd in [1] came to 194 pM; in assay [2], 852 pM. The koff in assay [1] was 4.3e-05 s⁻¹; in assay [2], 2.73e-05 s⁻¹. The kon in [1] is 222000 M⁻¹ s⁻¹; in assay [2], 32100 M⁻¹ s⁻¹. Further, the “OD 450 nm Absorption” value came out at 0.13 OD450 in assay [3]; 1.26 OD450 in assay [4]; 0.08 OD450 in [5]; 0.25 OD450 in assay [6]; 0.22 OD450 in assay [7]; 0.21 OD450 in assay [8]. In assay [9], the binding result is recorded as “no binding”.

(Values after patent US20240409647A1 (SINOMAB BIOSCIENCE, published 2024).)
